Source: patent publication US20200079851A1 (University of Texas, published 2020)
Residue numbers refer to the chain shown, from its start. Blank lines part the entries; values can stand above or below the binder they belong to.

How the values were obtained:
LILRB3 = target: T1, LILRB3 (human, UniProt O75022 24-443, limits assumed); assay: flow cytometry on LILRB3-overexpressing 293T cells, mAb at 2 ug/ml
T1 construct: also called leukocyte immunoglobulin-like receptor subfamily B member 3

human LILRB4 [1] = target: T2, human LILRB4 (human, UniProt Q8NHJ6 22-259, limits assumed); assay: ELISA
T2 construct: also called leukocyte immunoglobulin-like receptor subfamily B member 4

human LILRB4 [2] = target: T2, human LILRB4; assay: reactivity table, assay not named on the sheet
D2-SR-M16(210-259) = assay: ELISA, mAb titrated on D2-SR-M16(210-259)
Sequence of D2-SR-M16(210-259) (chain, as listed by the source): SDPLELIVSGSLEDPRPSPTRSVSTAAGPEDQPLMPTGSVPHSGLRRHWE

human LILRB4 [3] = target: T2, human LILRB4; assay: ELISA, OD450 against antibody concentration
human LILRB4 [4] = target: T2, human LILRB4; assay: flow cytometry on LILRB4-overexpressing 293T cells, mAb at 2 ug/ml
LILRB5 = LILRB5 (human, UniProt O75023 24-458, limits assumed); assay: reactivity table, assay not named on the sheet
Sequence of LILRB5 (O75023 24-458 limits assumed): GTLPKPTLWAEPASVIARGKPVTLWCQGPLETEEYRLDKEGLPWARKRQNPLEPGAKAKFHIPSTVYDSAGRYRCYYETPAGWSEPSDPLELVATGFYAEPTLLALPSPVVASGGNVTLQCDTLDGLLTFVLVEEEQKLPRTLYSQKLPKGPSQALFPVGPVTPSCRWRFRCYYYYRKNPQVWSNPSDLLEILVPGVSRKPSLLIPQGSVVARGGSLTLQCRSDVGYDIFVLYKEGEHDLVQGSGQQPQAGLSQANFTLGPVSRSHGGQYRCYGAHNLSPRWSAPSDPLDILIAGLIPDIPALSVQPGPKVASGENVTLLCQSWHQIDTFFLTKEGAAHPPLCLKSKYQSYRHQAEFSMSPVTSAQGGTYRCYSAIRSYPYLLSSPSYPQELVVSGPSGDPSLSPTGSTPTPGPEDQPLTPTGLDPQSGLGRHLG

LILRB2 = target: T3, LILRB2 (human, UniProt Q8N423 22-458, limits assumed); assay: flow cytometry on LILRB2-overexpressing 293T cells, mAb at 2 ug/ml
T3 construct: also called leukocyte immunoglobulin-like receptor subfamily B member 2
T3 sequence (Q8N423 22-458 limits assumed): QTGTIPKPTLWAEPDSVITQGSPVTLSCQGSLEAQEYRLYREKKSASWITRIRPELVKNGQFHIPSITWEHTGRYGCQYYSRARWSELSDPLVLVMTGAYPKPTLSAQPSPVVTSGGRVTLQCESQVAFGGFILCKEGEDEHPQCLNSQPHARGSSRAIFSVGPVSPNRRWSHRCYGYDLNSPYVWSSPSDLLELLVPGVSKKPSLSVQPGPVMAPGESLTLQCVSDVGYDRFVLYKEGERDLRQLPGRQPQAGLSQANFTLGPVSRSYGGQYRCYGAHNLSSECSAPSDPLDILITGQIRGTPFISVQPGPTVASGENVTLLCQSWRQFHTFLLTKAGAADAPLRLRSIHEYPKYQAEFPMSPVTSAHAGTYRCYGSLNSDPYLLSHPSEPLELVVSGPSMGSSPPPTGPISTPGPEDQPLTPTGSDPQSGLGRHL

human LILRB4 [5] = target: T2, human LILRB4; assay: ELISA, OD450 against antibody concentration; remark: listed apart in the source
human LILRB4 [6] = target: T2, human LILRB4; assay: ELISA, OD450 against antibody concentration; remark: listed apart in the source
human LILRB4 [7] = target: T2, human LILRB4; assay: ELISA, OD450 against antibody concentration; remark: listed apart in the source
human LILRB4 [8] = target: T2, human LILRB4; assay: ELISA, OD450 against antibody concentration; remark: listed apart in the source

T1 sequence (O75022 24-443 limits assumed): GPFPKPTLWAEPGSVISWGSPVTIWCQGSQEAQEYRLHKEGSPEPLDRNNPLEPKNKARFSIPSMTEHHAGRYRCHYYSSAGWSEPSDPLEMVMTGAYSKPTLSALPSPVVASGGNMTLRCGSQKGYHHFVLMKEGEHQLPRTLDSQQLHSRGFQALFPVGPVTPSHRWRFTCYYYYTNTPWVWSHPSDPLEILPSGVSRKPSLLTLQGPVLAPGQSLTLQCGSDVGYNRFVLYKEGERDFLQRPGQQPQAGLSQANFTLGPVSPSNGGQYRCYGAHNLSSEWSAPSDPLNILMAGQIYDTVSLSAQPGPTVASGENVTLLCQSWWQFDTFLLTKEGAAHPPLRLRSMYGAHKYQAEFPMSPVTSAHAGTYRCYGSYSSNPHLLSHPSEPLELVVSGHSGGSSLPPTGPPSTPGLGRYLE

- % of cells in the positive gate (LILRB3): 55%
B1: anti-LILRB mAb C287 (antibody, V domains shown)
VH: QIQLVQSGPELKKPGETVKISCKASGYTFTNYGINWVKQAPGKGLKWMGWINTNTGEPTYAEDFKGRFAFSLETSASTAYLQINNLKNEDTATYFCTRGSAKGGFFYWGQGTLVTVSA
VL: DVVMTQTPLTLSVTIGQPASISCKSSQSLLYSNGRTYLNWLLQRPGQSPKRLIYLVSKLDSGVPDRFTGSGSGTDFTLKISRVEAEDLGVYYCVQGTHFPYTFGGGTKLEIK
notes: mAb against LILRB3

- EC50 (human LILRB4 [1]): 0.0691 nM
B2: anti-LILRB4 rabbit monoclonal antibody #161-1 (antibody, V domains shown)
VH: QSVKESGGRLVTPGTPLTLTCTVSGIDLSVYLMSWVRHSPGKGLEYIGFINSAGITAYATWAKGRFIISKTSTTVDLKVTSPTTEDTATYFCARNWIRLDLWGQGTLVTISS
VL: ELDLTQTPASVSAAVGGTVTISCQSSETIYKNYLSWFQQKPGQPPKLLIYESSKLASGVPSRFSGSGSGTQFTLTISDVQCDDAATYYCLGGYTDGRDTIFGGGTELEIK
notes: Rabbit mAb

- EC50 (human LILRB4 [1]): 0.084 nM
B3: anti-LILRB4 rabbit monoclonal antibody #161-2 (antibody, V domains shown)
VH: B2 VH
VL: TQTPASVSAAVGGTVTISCQSSETIYKNYLSWFQQKPGQPPKLLIYESSKLASGVPSRFSGSGSGTQFTLTISDVQCDDAATYYCLGGYTDGRDTIFGGGTEVEIK
notes: Rabbit mAb

- binding result (human LILRB4 [2]): binds
- % of cells in the positive gate (LILRB3): 54.2%
B4: anti-LILRB mAb C3 (antibody, V domains shown)
VH: EVQLVESGGGLVQPKGSLKLSCAASGFTFNNYAMNWGRQAPGKGLEWVARIRSKRNNYATHYDDSVKDRFTISRDDSQNMLYLQLNNLKTEDTAMYYCVRDGPYAMDYWGQGTSVTVSS
VL: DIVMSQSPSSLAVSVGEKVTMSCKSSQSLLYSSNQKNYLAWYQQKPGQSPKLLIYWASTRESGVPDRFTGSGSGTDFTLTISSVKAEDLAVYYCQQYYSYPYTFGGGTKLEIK
notes: mAb against LILRB3

- EC50 (human LILRB4 [1]): 0.0795 nM
B5: anti-LILRB4 rabbit monoclonal antibody #120 (antibody, V domains shown)
VH: QSLEESGGRLVTPGTPLTLTCTVSGIDLNKYAMTWVRQAPGKGLEYIGFINIVGIAGYATWAKGRFTISKTSTTVDLKVTSPTTEDTATYFCARNWIRLDLWGQGTLVTVSS
VL: ELDLTQTPASVSAAVGGTVTISCQSSESLYKKNYLSWFQQKPGQPPKLLIFEASKLASGVPSRFSGSGSGTQFTLTISDVQCDDAASYYCLGDYTNGRDTTFGGGTEVVVK
notes: Rabbit mAb

- EC50 (human LILRB4 [1]): 0.14 nM
B6: anti-LILRB4 rabbit monoclonal antibody #192 (antibody, V domains shown)
VH: EQSLEESGGGLVTPGGTLTLTCTVSGFSLSNNAMSWVRQAPGKGLEWIGVILLAGPTYYASWAKGRFTISKTSTTVDLKITSPTTEDTATYFCAIAIGSRPFALWGQGTLVTISS
VL: ELVLTQTPSSTSAAVGGTVTINCQSSQSVYSNWLSWFQQKPGQPPKPLIYLASTLASGVPSRFSGSGSGTQFTLTISDVQCDDAATYYCQGGYNGNIYTFGGGTEVVVK
notes: Rabbit mAb

- EC50 (human LILRB4 [1]): 0.132 nM
B7: anti-LILRB4 rabbit monoclonal antibody #208 (antibody, V domains shown)
VH: B6 VH with L4V, A54S, P56T
VL: B6 VL with L4M
notes: Rabbit mAb

- EC50 (human LILRB4 [1]): 0.183 nM
- EC50 (read off the curve) (D2-SR-M16(210-259)): ~0.04 µg/mL
- EC50 (human LILRB4 [3]): 0.0274 µg/mL
B8: anti-LILRB4 rabbit monoclonal antibody #140 (antibody, V domains shown)
VH: EQSLKESGGRLVTPGTPLTLTCTASGFSLSTYDMSWVRQAPGKGLEWIGIISTSYSIYYTYYASWAKGRFTISRTSSTTVDLKMTSLTTEDTATYFCVGGGGKLNSVVYYIRGLRFWGQGTLVTISS
VL: ELVMTQTPSSTSAAVGGTVTINCQASQSVYDDNWCSWYQQKPGQPPKLLIYDASTLPSGVPSRFKGSGSGTQFTLTISDLECDDAATYYCAGAYSDNIYVFGGGTEVEIK
notes: also called mAb 140

- % of cells in the positive gate (human LILRB4 [4]): 62.5%
- EC50 (human LILRB4 [1]): 0.568 nM
B9: anti-LILRB4 mAb C84 (antibody, V domains shown)
VH: QIQLVQSGPELKKPGETVKISCKASGYTFTNYGMNWVKQAPGKGLKWMGWINTYTGEPTYADDFKGRFAFSLETSASTAYLQINNLKNEDMATYFCASIYYHTSLWYFDVWGAGTTVTVSS
VL: DVLMTQTPLSLPVSLGDQASISCRSSQNIVHSNGNTYLEWYLQKPGQSPKLLIYRVSNRFSGVPVRFSGSGSGTDFTLKISRVEAEDLGVYYCFQGSHVPLTFGAGTKLELK
notes: Mouse mAb; also called anti-hLILRB4

- % of cells in the positive gate (human LILRB4 [4]): 38.3%
- binding result (LILRB5): binds
B10: anti-LILRB4 mAb C201 (antibody, V domains shown)
VH: DVQLQESGPGLVKPSQSLSLTCTVTGYSITSDYAWNWIRQFPGNKLEWMGYISYSGGTSYNPSLKSRISITRDTSKNQFFLQLNSVTTEDTATYYCARLHYGYDYWGLGTTLTVSS
VL: B9 VL with N28S, R55K, V65D, S97L, L101P, A105G, L111I
notes: Mouse mAb

- % of cells in the positive gate (LILRB2): 5.22%
B11: anti-LILRB mAb C102 (antibody, V domains shown)
VH: EVQLQQSGPELVKPGASVKISCKTSGYTFTEYTMHWVKQSHGKSLEWIGGINPNNGGTSYNQKFKGKATLTVDKSSSTAYMDLRSLTSEDSAVYYCARYWDYFDYWGQGTTLTVSS
VL: B9 VL with N28S, Y41F, R55K, V65D, H98Q, V99I, L101P, A105G, L111I
notes: mAb against LILRB2

- % of cells in the positive gate (human LILRB4 [4]): 44.7%
B12: anti-LILRB4 mAb C92 (antibody, V domains shown)
VH: B9 VH
VL: DVVMTQTPLSLPVSLGDQASISCRSSQSLVHSNGNTYLHWYLQKPGQSPKLLIYKVSNRFSGVPDRFSGSGSGTDFTLKISRVEAEDLGVYFCSQSTHVPYTFGGGTKLEIK
notes: Mouse mAb

- EC50 (human LILRB4 [1]): 0.118 nM
- EC50 (human LILRB4 [5]): 0.0177 µg/mL
B13: anti-LILRB4 rabbit monoclonal antibody #101 (antibody, V domains shown)
VH: HSVKESGGGLVTPGESLKLTCKASGMDFSKYWICWVRQAPGKGLEWIACIDTGRSAITVYAKWAKGRFTISKTSSTTVTLQMTTLTAADTATYFCETSVDLWGPGTLVTISS
VL: ELDLTQTPASVEAAVGGTVTIKCQASESIYSGLAWYKQKPGQPPKFLILSASTQASGVPSRFKGSGSGTEFTLTISDLECADAATYYCQSRHYGSSRSYGFAFGGGTEVEIK
notes: Rabbit mAb

- EC50 (human LILRB4 [6]): 0.0274 µg/mL
- EC50 (human LILRB4 [1]): 0.0897 nM
B14: anti-LILRB4 rabbit monoclonal antibody #223 (antibody, V domains shown)
VH: EQSVKESGGRLVTPGTPLTLTCIVSGFSLNNYAISWVRQAPEKGLEWIGMIRSDGHVDYATWAKGRFTISKTSTTVDLKMTSLTTEDTATYFCARGGHFFNPWGPGTLVTISS
VL: ELVMTQTPSPVSAAVGGTVTISCQSSQTVYNYNELAWYQQKPGQPPKLLIDAASTLASGVPSRFSGSGSGTQFTLKISEVQCDDAATYYCQGTYYISGWYYTFGGGTEVVVK
notes: Rabbit mAb

- EC50 (human LILRB4 [7]): 0.0459 µg/mL
B15: anti-LILRB4 rabbit monoclonal antibody #216-1 (antibody, V domains shown)
VH: EQSVEESGGGLVKPGASLTLTCIASGFSFSSSYVMCWVRQAPGKGLELIACIHAGGSGSTYYASWAKGRFTISKTSSTTVTLQMTSLTAADTATYFCARYNYHFYYIGDYSDLWGPGTLVTVSS
VL: ELVMTQTPSSVSAAVGGTVTIKCQASEDIDSYLAWYQQKPGQRPKVLIYRASTLASGVPSRFKGSGSGTEFTLTISGLECDDAATYYCQQGWSNDVGSNAFGGGTKVEIK
notes: Rabbit mAb

- binding result (human LILRB4 [2]): binds
- binding result (LILRB5): binds
- % of cells in the positive gate (LILRB3): 64%
B16: anti-LILRB mAb C290 (antibody, V domains shown)
VH: EVQLLQSGPELVKPGASVKISCRTSGYTFTEYTMHWVKQSHGKSLEWIGGINTNNGGTSYNQKFKGKATLTVDKSSSTAYMELRSLTSEDSAVYYCARDKRSRGELDSTMDYWGQGTSVTVSS
VL: DIVMTQAAPSVPVTPGESVSISCRSSKSLLHSNGNTYLYWFLQRPGQSPQLLIYRMSNLASGVPDRFSGSGSGTAFTLRISRVEAEDVGVYYCMQHLEYPFTFGSGTMLEIK
notes: mAb against LILRB3

- % of cells in the positive gate (human LILRB4 [4]): 73.5%
B17: anti-LILRB4 mAb C53 (antibody, V domains shown)
VH: EVNLEESGGGLVQPGGSMKLSCIASGFTFSNYWMNWVRQSPEKGLEWVAEIRLKYNNYATHYAESVKGRFTISRDDSKSTVYLQMNNLRAEDTGIYYCTGTRYGSSLDYWGQGTSVTVSS
VL: DIVMSQSPSSLAVSVGEKVTMSCKSSQNLFYSTNQKNYLAWYQQKPGQSPKLLIYWASTRESGVPDRFTGSGSGTAFTLTISSVKAEDLAVYYCQQYYNYPLTFGAGTKLELK
notes: Mouse mAb

- EC50 (human LILRB4 [1]): 0.139 nM
- EC50 (human LILRB4 [8]): 0.0209 µg/mL
B18: anti-LILRB4 rabbit monoclonal antibody #128-1 (antibody, V domains shown)
VH: EQSVEESEGRLVTPGGSLTLTCTVSGFGLSSWAMAWVRQAPGKGLEWIGIIGVSGKIYYPTWAKGRFTISRTSTTVDLKIASPTTEDTATYFCAREPYGDSLWGQGTLVTISS
VL: ELVMTQTPSPVSAAVGGTVTISCQSSQNISTYLSWYQQKPGQPPKFLIYQASKLASGVSSRFKGSGSGTQFTLTISDVQCDDAASYYCAGWKSYSNDDNDFGGGTEVVVK
notes: Rabbit mAb

- % of cells in the positive gate (LILRB2): 15%
B19: anti-LILRB mAb C193 (antibody, V domains shown)
VH: EVQLVESGGGLVQPKGSLRLSCAASGFIFNTYAMNWVRQAPGKGLEWVARIRSKSNKYATYYVDSVKDRFTISRDDSQSMLYLQMNNLKTEDTAMYYCVRDGIWGQGTLVTVSA
VL: DIVMTQSPSSLTVTAGEKVTMSCKSSQSLLNSGNQKNYLTWYHQKPGQPPKLLIYWAFTRESGVPDRFTGSGSGTDFTLTISSVQAEDLAVYYCQNDYSYPLTFGSGTKLEIK
notes: mAb against LILRB2
